Measurements: US20230357384A1 (NEXTCURE, published 2023)

T1: FLRT3 (antigen of the binning assay of Table 2) (Homo sapiens (Human), UniProt Q9NZU0 29-528, limits assumed)
T1 construct: the whole entry for FLRT3 is named
T1 sequence: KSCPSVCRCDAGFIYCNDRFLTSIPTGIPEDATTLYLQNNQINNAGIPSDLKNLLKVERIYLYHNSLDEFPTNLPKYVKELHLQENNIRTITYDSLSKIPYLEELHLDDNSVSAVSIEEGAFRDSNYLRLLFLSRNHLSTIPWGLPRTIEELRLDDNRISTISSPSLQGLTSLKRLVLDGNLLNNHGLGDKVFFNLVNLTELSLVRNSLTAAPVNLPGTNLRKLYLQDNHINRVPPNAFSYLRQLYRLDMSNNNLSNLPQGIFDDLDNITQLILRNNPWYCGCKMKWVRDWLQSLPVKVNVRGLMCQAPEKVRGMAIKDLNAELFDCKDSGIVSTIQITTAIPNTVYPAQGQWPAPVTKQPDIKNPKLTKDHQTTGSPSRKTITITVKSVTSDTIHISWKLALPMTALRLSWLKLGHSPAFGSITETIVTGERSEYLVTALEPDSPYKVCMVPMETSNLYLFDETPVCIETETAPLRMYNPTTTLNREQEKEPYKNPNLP

T2: mouse FLRT3 on transiently transfected 293T cells (mouse, UniProt Q8BGT1 29-649)
T2 construct: also called mFLRT3
T2 sequence: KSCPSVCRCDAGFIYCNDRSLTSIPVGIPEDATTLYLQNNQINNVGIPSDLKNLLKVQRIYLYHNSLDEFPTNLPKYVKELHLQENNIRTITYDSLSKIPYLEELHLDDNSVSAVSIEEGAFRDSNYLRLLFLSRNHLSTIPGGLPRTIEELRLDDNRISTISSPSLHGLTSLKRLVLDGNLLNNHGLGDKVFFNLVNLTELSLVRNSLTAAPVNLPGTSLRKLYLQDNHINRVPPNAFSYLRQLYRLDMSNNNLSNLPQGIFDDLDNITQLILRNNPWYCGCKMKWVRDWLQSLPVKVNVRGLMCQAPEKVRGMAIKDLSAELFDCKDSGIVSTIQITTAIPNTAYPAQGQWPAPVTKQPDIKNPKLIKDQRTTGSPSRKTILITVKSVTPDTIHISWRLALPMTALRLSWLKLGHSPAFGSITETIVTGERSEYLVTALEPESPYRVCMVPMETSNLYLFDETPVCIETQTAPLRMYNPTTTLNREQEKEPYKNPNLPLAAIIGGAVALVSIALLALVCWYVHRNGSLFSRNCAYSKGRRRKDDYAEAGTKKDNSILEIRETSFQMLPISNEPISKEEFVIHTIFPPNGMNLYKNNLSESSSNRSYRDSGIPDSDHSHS

T3: human FLRT3 on cells (human, UniProt Q9NZU0 29-649)
T3 construct: also called hFLRT3
T3 sequence: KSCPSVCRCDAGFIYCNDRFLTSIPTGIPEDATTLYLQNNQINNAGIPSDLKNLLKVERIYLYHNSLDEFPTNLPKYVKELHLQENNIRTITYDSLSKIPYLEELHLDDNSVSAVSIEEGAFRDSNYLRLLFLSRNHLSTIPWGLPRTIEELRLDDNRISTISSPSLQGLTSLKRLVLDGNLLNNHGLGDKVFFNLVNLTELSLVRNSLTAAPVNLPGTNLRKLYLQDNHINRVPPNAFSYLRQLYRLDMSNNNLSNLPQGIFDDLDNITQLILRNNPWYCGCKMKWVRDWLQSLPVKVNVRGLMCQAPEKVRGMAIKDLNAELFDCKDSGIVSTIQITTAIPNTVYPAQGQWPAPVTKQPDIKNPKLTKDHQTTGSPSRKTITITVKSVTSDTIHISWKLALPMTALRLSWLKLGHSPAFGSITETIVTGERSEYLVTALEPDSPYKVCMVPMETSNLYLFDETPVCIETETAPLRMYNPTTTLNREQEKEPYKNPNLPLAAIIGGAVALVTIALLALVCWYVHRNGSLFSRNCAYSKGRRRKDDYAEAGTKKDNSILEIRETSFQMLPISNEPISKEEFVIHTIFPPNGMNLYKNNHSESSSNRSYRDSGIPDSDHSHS

T4: FLRT3-His monomeric fusion protein (Homo sapiens (Human), UniProt Q9NZU0 29-528)
T4 construct: also called FLRT3 monomer; not shown: His tag
T4 sequence: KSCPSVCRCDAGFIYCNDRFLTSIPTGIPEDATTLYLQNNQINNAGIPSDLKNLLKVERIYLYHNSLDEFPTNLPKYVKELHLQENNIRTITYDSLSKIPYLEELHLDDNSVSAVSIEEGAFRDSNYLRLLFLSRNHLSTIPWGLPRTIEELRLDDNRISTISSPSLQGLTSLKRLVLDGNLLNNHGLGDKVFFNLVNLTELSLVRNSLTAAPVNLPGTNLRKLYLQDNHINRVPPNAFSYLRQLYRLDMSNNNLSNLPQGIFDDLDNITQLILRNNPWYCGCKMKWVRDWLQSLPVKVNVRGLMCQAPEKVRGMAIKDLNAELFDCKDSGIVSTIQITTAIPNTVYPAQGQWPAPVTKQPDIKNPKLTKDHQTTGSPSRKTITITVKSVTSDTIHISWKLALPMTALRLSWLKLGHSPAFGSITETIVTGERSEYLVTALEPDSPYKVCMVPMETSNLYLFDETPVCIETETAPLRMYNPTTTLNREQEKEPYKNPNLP

T5: FLRT3-Fc (Homo sapiens (Human), UniProt Q9NZU0 29-528, biotin label in Example 8 (site not stated))
T5 construct: also called FLRT3-Fc biotin; soluble FLRT3; not shown: Fc part
T5 sequence: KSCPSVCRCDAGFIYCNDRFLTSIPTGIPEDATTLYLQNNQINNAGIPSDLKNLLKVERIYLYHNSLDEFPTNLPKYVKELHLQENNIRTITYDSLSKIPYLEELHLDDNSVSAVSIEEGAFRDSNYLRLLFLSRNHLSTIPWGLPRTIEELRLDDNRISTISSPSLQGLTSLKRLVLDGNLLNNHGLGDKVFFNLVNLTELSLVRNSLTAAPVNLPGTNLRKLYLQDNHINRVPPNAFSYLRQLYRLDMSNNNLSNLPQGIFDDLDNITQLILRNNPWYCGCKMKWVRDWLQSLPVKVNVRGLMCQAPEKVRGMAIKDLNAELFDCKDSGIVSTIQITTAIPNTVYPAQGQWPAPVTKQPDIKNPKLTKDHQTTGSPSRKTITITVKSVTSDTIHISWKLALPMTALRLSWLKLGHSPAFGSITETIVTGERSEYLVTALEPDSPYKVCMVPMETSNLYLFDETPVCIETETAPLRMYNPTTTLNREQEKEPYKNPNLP


How the values were obtained:
[1] = biological target: T1, FLRT3 (antigen of the binning assay of …); test: antibody binning matrix (Table 2); competitor: 1H5
[2] = biological target: T1, FLRT3 (antigen of the binning assay of …); test: antibody binning matrix (Table 2); competitor: 2F7
[3] = biological target: T1, FLRT3 (antigen of the binning assay of …); test: antibody binning matrix (Table 2); competitor: 5C2
[4] = biological target: T1, FLRT3 (antigen of the binning assay of …); test: antibody binning matrix (Table 2); competitor: 14B7
[5] = biological target: T1, FLRT3 (antigen of the binning assay of …); test: antibody binning matrix (Table 2); competitor: 14D3
[6] = biological target: T1, FLRT3 (antigen of the binning assay of …); test: antibody binning matrix (Table 2); competitor: 15G11
[7] = biological target: T2, mouse FLRT3 on transiently transfected …; test: flow cytometry (AF647 MFI), transiently transfected mFLRT3-293T cells
[8] = biological target: T3, human FLRT3 on cells; test: flow cytometry on A549 cells (endogenous hFLRT3), normalised MFI, non-linear fit
Method: (§1) Increasing concentrations of FLRT3 antibodies bound to A549 cells that express endogenous hFLRT3 (FIG. 19). Binding curves for the top three antibodies were performed (FIG. 20A). MFI values of each group were normalized within that group- i.e. largest value 100% and smallest value 0% (FIG. 20A). EC50 values were calculated based on non-linear regression fit (FIG. 20B).

[9] = biological target: T3, human FLRT3 on cells; test: flow cytometry on 293T cells transfected with human FLRT3, normalised MFI, non-linear fit
Description: (§2) MFI values of each group were normalized within that group- i.e. largest value 100% and smallest value 0%.

[10] = biological target: T3, human FLRT3 on cells; test: flow cytometry on 293T cells transfected with human FLRT3, normalised MFI, non-linear fit; Exp 1
Description: as §2

[11] = biological target: T3, human FLRT3 on cells; test: flow cytometry on 293T cells transfected with human FLRT3, normalised MFI, non-linear fit; Exp 2
Description: as §2

[12] = biological target: T1, FLRT3 (antigen of the binning assay of …); test: antibody binning matrix (Table 2); row '1X Kinetic' (no first antibody), column antibody taken as binder
[13] = biological target: T4, FLRT3-His monomeric fusion protein; test: kinetic affinity measurement with FLRT3-His monomer (Table 1)
[14] = biological target: T3, human FLRT3 on cells; test: flow cytometry on A549 cells (endogenous hFLRT3), normalised MFI, non-linear fit; remark: listed apart in the source
Method: as §1

[15] = biological target: T5, FLRT3-Fc; test: competition ELISA: FLRT3-Fc biotin binding to coated Unc5B-Fc with titrated antibody
Method: The FLRT3 antibodies were tested for their ability to block FLRT3-Unc5B interaction in ELISA assays (FIG. 14A). The binding of FLRT3-Fc biotin to Unc5B-Fc was confirmed in the absence of blocking mAbs (FIG. 14B).

[16] = biological target: T4, FLRT3-His monomeric fusion protein; test: Octet, FLRT3 antibodies and FLRT3 monomer
[17] = biological target: T3, human FLRT3 on cells; test: flow cytometry (AF647 MFI), FLRT3-293T-OKT3 cells, antibody titration

Binder | binning response (no name or unit printed) [1] | binning response (no name or unit printed) [2] | binning response (no name or unit printed) [3] | binning response (no name or unit printed) [4] | binning response (no name or unit printed) [5] | binning response (no name or unit printed) [6] | binding result [7] | EC50 [8] | EC50 [9] | EC50 [10] | EC50 [11] | binning response (no name or unit printed) [12] | Kd [13] | koff [13] | kon [13] | EC50 [14] | IC50 (read off the curve) [15] | binding result [16] | binding result [17]
14D3 (antibody, V domains shown, Variable domains only) VH: EIQLQQSGAELVKPGASVKISCKASGYSFTGYNMNWVKQSHGKSLEWIGNITPYYGSASYNQKFKGKATLTVDKSSSTAYMQLNSLTSEDSAVYYCARRSYDYDENAMDYWGQGTSVTVSS VL: DIVMTQSHKFMSTSVGDRVSITCKASQDLSTAVAWYQQKPGQSPKLLIYSASYRYTGVPDRFTGSGSGTDFTFTISSVQAEDLAVYYCQQHYSTPLTFGAGTKLELK | 0.644 | 0.75 | -0.101 | 1.36 | -0.0406 | 0.196 | binds | 8.21 nM | < 5 nM | 1.82 nM | 3.24 nM | 0.947 | – | – | – | – | – | – | –
14B7 (antibody, V domains shown, Variable domains only; also called FLRT3 mAb 14B7; antibody 14B7) VH: QVQLQQSGPELVKPGASVNISCKASGYAFGNSWMNWVKQRPGKGLEWIGWIYPGDGNANYNGKFKGKATLTADKSSSTAYMQLSSLTSEDSAVYFCARALYDYDGWFAYWGQGTLVTVSA VL: DIQMNQSPSSLSASLGDTITIACRASQNIDIWLSWYQQKPGSIPKLLIYKASNLHTGVPSRFSGSGSGTDFTLTISSLQPEDIATYYCLQGQSFPFTFGSGTKLEIK | 0.671 | 0.771 | 0.0014 | 0.0294 | 0.621 | 1.07 | – | 0.29 nM | < 1.5 nM | 1.41 nM | 1.35 nM | 1.73 | 0.349 nM | 0.000138 s⁻¹ | 436000 M⁻¹ s⁻¹ | < 1 nM | ~2 µg/mL | – | –
13B2 (antibody, V domains shown, Variable domains only) VH: EIQLQQSGTELVKPGASVKISCKASGYSFTGYNMNWMKQSHGMSLEWIGNINPYYGSTSYNQKFKGKATLTIDKSSSTAYMQLNSLTSEDSAVYYCARDRKNWEYFFDYWGQGTTLTVSS VL: ETTVTQSPASLSMAIGEKVTIRCITSTDIDDDMNWYQQKPGKPPKLLISEGNTLRPGVPSRFSSSGYGTDFVFTIENMLSEDVADYYCLQSDNLPYTFGGGTKLEIK | – | – | – | – | – | – | – | – | – | – | – | – | – | – | – | – | – | no binding | no binding (tested: about 300 nM)
